How the values were obtained:
[1] = analytical size exclusion chromatography; details: glycan gained; control: wild type
[2] = lysyl hydroxylase activity, Succinate-Glo luminescence; details: glycan gained; control: wild type

| Protein | oligomerisation [1] | enzymatic_activity [2] |
| --- | --- | --- |
| lysyl hydroxylase 3 (LH3/PLOD3): T672N (protein) parent chain: MTSSGPGPRFLLLLPLLLPPAASASDRPRGRDPVNPEKLLVITVATAETEGYLRFLRSAEFFNYTVRTLGLGEEWRGGDVARTVGGGQKVRWLKKEMEKYADREDMIIMFVDSYDVILAGSPTELLKKFVQSGSRLLFSAESFCWPEWGLAEQYPEVGTGKRFLNSGGFIGFATTIHQIVRQWKYKDDDDDQLFYTRLYLDPGLREKLSLNLDHKSRIFQNLNGALDEVVLKFDRNRVRIRNVAYDTLPIVVHGNGPTKLQLNYLGNYVPNGWTPEGGCGFCNQDRRTLPGGQPPPRVFLAVFVEQPTPFLPRFLQRLLLLDYPPDRVTLFLHNNEVFHEPHIADSWPQLQDHFSAVKLVGPEEALSPGEARDMAMDLCRQDPECEFYFSLDADAVLTNLQTLRILIEENRKVIAPMLSRHGKLWSNFWGALSPDEYYARSEDYVELVQRKRVGVWNVPYISQAYVIRGDTLRMELPQRDVFSGSDTDPDMAFCKSFRDKGIFLHLSNQHEFGRLLATSRYDTEHLHPDLWQIFDNPVDWKEQYIHENYSRALEGEGIVEQPCPDVYWFPLLSEQMCDELVAEMEHYGQWSGGRHEDSRLAGGYENVPTVDIHMKQVGYEDQWLQLLRTYVGPMTESLFPGYHTKARAVMNFVVRYRPDEQPSLRPHHDSSTFTLNVALNHKGLDYEGGGCRFLRYDCVISSPRKGWALLHPGRLTHYHEGLPTTWGTRYIMVSFVDP | decreases | – |
| lysyl hydroxylase 3 (LH3/PLOD3): W148N-L150T (protein) parent chain: MTSSGPGPRFLLLLPLLLPPAASASDRPRGRDPVNPEKLLVITVATAETEGYLRFLRSAEFFNYTVRTLGLGEEWRGGDVARTVGGGQKVRWLKKEMEKYADREDMIIMFVDSYDVILAGSPTELLKKFVQSGSRLLFSAESFCWPEWGLAEQYPEVGTGKRFLNSGGFIGFATTIHQIVRQWKYKDDDDDQLFYTRLYLDPGLREKLSLNLDHKSRIFQNLNGALDEVVLKFDRNRVRIRNVAYDTLPIVVHGNGPTKLQLNYLGNYVPNGWTPEGGCGFCNQDRRTLPGGQPPPRVFLAVFVEQPTPFLPRFLQRLLLLDYPPDRVTLFLHNNEVFHEPHIADSWPQLQDHFSAVKLVGPEEALSPGEARDMAMDLCRQDPECEFYFSLDADAVLTNLQTLRILIEENRKVIAPMLSRHGKLWSNFWGALSPDEYYARSEDYVELVQRKRVGVWNVPYISQAYVIRGDTLRMELPQRDVFSGSDTDPDMAFCKSFRDKGIFLHLSNQHEFGRLLATSRYDTEHLHPDLWQIFDNPVDWKEQYIHENYSRALEGEGIVEQPCPDVYWFPLLSEQMCDELVAEMEHYGQWSGGRHEDSRLAGGYENVPTVDIHMKQVGYEDQWLQLLRTYVGPMTESLFPGYHTKARAVMNFVVRYRPDEQPSLRPHHDSSTFTLNVALNHKGLDYEGGGCRFLRYDCVISSPRKGWALLHPGRLTHYHEGLPTTWGTRYIMVSFVDP | no change | no change |
| lysyl hydroxylase 3 (LH3/PLOD3): R714N (protein) parent chain: MTSSGPGPRFLLLLPLLLPPAASASDRPRGRDPVNPEKLLVITVATAETEGYLRFLRSAEFFNYTVRTLGLGEEWRGGDVARTVGGGQKVRWLKKEMEKYADREDMIIMFVDSYDVILAGSPTELLKKFVQSGSRLLFSAESFCWPEWGLAEQYPEVGTGKRFLNSGGFIGFATTIHQIVRQWKYKDDDDDQLFYTRLYLDPGLREKLSLNLDHKSRIFQNLNGALDEVVLKFDRNRVRIRNVAYDTLPIVVHGNGPTKLQLNYLGNYVPNGWTPEGGCGFCNQDRRTLPGGQPPPRVFLAVFVEQPTPFLPRFLQRLLLLDYPPDRVTLFLHNNEVFHEPHIADSWPQLQDHFSAVKLVGPEEALSPGEARDMAMDLCRQDPECEFYFSLDADAVLTNLQTLRILIEENRKVIAPMLSRHGKLWSNFWGALSPDEYYARSEDYVELVQRKRVGVWNVPYISQAYVIRGDTLRMELPQRDVFSGSDTDPDMAFCKSFRDKGIFLHLSNQHEFGRLLATSRYDTEHLHPDLWQIFDNPVDWKEQYIHENYSRALEGEGIVEQPCPDVYWFPLLSEQMCDELVAEMEHYGQWSGGRHEDSRLAGGYENVPTVDIHMKQVGYEDQWLQLLRTYVGPMTESLFPGYHTKARAVMNFVVRYRPDEQPSLRPHHDSSTFTLNVALNHKGLDYEGGGCRFLRYDCVISSPRKGWALLHPGRLTHYHEGLPTTWGTRYIMVSFVDP | decreases | – |

Reference: article PMC6082870
